Measured values reported in patent US20250276073A1 (Bicycle, published 2025).

Target: T1, Recombinant human His-tagged TfR1 (a.a. 89-760) (ACRO Biosystems, CD1-H5243) (human, UniProt P02786 89-760)
T1 construct: range 89-760; Bought protein; Captured and amine-coupled on an NTA chip; also called human TfR1; transferrin receptor 1; not shown: His tag (printed 'Hiss-tagged')
Experiment: SPR (Biacore), TfR1 captured/coupled on NTA chip, peptide as analyte

T1 sequence (P02786 89-760 limits assumed): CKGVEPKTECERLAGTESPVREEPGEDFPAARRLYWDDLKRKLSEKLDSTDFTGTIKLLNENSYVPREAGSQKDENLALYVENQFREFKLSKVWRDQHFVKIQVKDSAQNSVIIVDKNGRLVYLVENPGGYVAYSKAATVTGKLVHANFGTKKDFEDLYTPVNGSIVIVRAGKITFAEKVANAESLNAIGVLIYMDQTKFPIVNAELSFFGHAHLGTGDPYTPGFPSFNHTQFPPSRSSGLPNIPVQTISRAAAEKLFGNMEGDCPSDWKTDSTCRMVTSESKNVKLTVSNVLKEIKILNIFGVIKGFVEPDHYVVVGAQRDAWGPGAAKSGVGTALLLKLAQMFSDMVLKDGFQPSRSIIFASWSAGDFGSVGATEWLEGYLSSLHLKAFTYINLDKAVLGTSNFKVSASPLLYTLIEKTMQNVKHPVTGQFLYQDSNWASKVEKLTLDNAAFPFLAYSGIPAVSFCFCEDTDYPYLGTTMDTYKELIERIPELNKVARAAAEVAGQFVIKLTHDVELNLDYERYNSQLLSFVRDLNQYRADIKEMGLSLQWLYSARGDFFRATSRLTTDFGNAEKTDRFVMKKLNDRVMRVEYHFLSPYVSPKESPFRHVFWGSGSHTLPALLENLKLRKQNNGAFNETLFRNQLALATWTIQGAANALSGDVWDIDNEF

B1: BCY23201 (peptide)
peptide: CPXDAYLGCXSXCEPW
modifications: CP[HyP]DAYLGC[tBuGly]S[pCaPhe]CEPW: HyP at 3, tBuGly at 10, pCaPhe at 12; N-terminal acetyl; C-terminal CONH2; Cys 1, 9, 13 bonded to TATB scaffold
notes: Bicyclic peptide
Kd: 17 nM
